{
  "source": "paper PMC6687201",
  "about": "“Atg11 tethers Atg9 vesicles to initiate selective autophagy” (PLoS Biology, 2019)",
  "key": {"[1]": {"target": "the molecule itself", "test": "AUC; sedimentation velocity of purified Atg11-His6, analysed with SEDFIT; also at 1.63 mg/ml and 0.15 mg/ml"}, "[2]": {"target": "T1, Atg9^core reconstituted in proteoliposomes (yeast, UniProt Q12142 281-779)", "T1 construct": "Atg9 core, yeast; Liposomes: 20 mol% cholesterol, 10 mol% POPE, 60 mol% POPC, 10 mol% POPS; protein:lipid 1:200; also called Atg9-PLs; Atg9 vesicles; source: reconstituted in liposomes by rapid dilution", "T1 sequence (looked up)": "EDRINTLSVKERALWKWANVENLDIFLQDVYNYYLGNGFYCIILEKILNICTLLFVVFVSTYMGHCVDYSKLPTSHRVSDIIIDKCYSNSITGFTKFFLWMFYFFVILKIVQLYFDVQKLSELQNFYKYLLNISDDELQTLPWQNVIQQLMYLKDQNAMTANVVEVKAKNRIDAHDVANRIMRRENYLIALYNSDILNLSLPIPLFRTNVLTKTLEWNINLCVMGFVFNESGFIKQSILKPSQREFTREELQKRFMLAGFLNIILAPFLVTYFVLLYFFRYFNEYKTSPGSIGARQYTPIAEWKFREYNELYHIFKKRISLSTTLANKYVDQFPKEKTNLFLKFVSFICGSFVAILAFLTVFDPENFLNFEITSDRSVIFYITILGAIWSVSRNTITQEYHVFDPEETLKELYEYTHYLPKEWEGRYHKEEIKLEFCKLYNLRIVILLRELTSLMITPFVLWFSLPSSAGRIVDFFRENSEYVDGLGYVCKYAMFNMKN", "test": "co-floatation with proteoliposomes; Atg9-PLs mixed with one interaction partner in a Nycodenz step gradient, ultracentrifugation, floated fraction on SDS-PAGE; SUVs lacking Atg9^core as control", "details": "both partners purified"}},
  "data": [
    {"binder": "recombinant purified Atg11 (Atg11-His6) (natural protein, yeast, Atto565 label in the GUV experiments, N-terminal residual glycine-proline from PreScission protease digestion; Atg11, yeast; expressed from pCoofy37-Atg11; measured molecular weight 136 kDa; also called His-tagged Atg11; Atg11^Atto565; source: E. coli BL21 (DE3), coexpressed with chaperones from pG-KJE8, purified (Ni-NTA, PreScission digestion, gel filtration); not shown: His6, C-terminal, kept) GPMADADEYSTAPTQQEITPLQTTATIINAISGECITTNVDFFVSLDKFKQFIARKWKIPPDQLLILLPYGNKLKPSMFKELLINRSFTLNDFYVYDRRLFSLVSKPTPTNLLTSKDSNPMNSPNSNDLTETLEYLIKNSHISQYQGSDTIMIKPMPSPLEDADVDLSRLNYHSVTSLLTTNLGWLSALEIDVHYFKSLIPDIIAHIKRIFDGLTVCSQYLKLYCFDVESLYNSNVQFLNQLVDNGMTSKWEKCFNDTLSKLTALEGDSLQKFINIESLLENEKSVKILNHSINGKLNKIKREIDENASFRDIITVNIDRLRQMFTPNESKFELEDQMAESFEVLVSEMRTRSRNVLDKEEEEFNSQEFLKSMNVMLEKDKKESVKTLFTISQALYSQIGELIDLKKSLQKHAVAILGNIAFTQMEILGIKRLLLNECNKDLELYKKYEVEFAQVEDLPLIYGLYLIEKYRRLSWFQQILSFISNFNQDLELFKQNELRTRNKWVKNFGSIATVFCEDLLSSSDFKRLNEYHSHTSPPNEDEEDENENSIANYRQDLVKVSQAIDNYMTQIKETDVSEPIIDLLSKTLFETKRFHIIYSNFKNNNNNSSNGNSISPEGSIALKSDDVVKGYKTRIKKLESLLHEFQYSDIGHWPQGVLNTHLKPFRGSATSINKKKFLGASVLLEPANISEVNIDSVSQANNHQIQELESNVDDLLHQLQLLKEENNRKSMQISEMGKKISDLEVEKTAYRETLTNLNQELARLTNEEQSHRTEIFTLNASFKKQLNDIISQDNEKIEKLTGDYDDVSKSRERLQMDLDESNKKHEQEVNLLKADIERLGKQIVTSEKSYAETNSSSMEKGEKFETIPLAEDPGRENQISAYTQTLQDRIFDIISTNIFILENIGLLLTFDNNNNIQIRRVKGLKKGTAQSNILDESTQMLDAHDNSLIKSPVFQKLKDEYELIKSVANGSEKDTQQSIFLGNITQLYDNKLYEVAVIRRFKDIETLAKKLTKENKIKRTLLERFQREKVTLRNFQIGDLALFLPTRENVNSVGSMSSSTSSLSSSFSSVDLSTPPPLDAMSIQSSPSVIHSNVINQASISGRDKNKLMRPWAAFTAFEESTRYFLKDEKGLTKGKEWFVGRIVTLEHFVADSPSNNPFRLPKGSVWFQVTAVVVSYQGV", "values": [
      {"measurement": "stoichiometry N", "setting": "[1]", "result": 2},
      {"measurement": "stoichiometry N", "setting": "[2]", "result": 1}
    ]}
  ]
}
